Publication PMC6497562 (Molecular cancer research : MCR, 2019)

Target: neurofibromin (human (endogenous in 786-0 and RCC4), UniProt P21359-2 1-2818)
Assay: co-IP

- fold increase of binding in hypoxia over normoxia: ~2 fold
B1: hypoxia-associated factor (HAF), endogenous (natural protein, human (endogenous in 786-0), UniProt O43290 1-800, looked up)
chain: MGSSKKHRGEKEAAGTTAAAGTGGATEQPPRHREHKKHKHRSGGSGGSGGERRKRSRERGGERGSGRRGAEAEARSSTHGRERSQAEPSERRVKREKRDDGYEAAASSKTSSGDASSLSIEETNKLRAKLGLKPLEVNAIKKEAGTKEEPVTADVINPMALRQREELREKLAAAKEKRLLNQKLGKIKTLGEDDPWLDDTAAWIERSRQLQKEKDLAEKRAKLLEEMDQEFGVSTLVEEEFGQRRQDLYSARDLQGLTVEHAIDSFREGETMILTLKDKGVLQEEEDVLVNVNLVDKERAEKNVELRKKKPDYLPYAEDESVDDLAQQKPRSILSKYDEELEGERPHSFRLEQGGTADGLRERELEEIRAKLRLQAQSLSTVGPRLASEYLTPEEMVTFKKTKRRVKKIRKKEKEVVVRADDLLPLGDQTQDGDFGSRLRGRGRRRVSEVEEEKEPVPQPLPSDDTRVENMDISDEEEGGAPPPGSPQVLEEDEAELELQKQLEKGRRLRQLQQLQQLRDSGEKVVEIVKKLESRQRGWEEDEDPERKGAIVFNATSEFCRTLGEIPTYGLAGNREEQEELMDFERDEERSANGGSESDGEENIGWSTVNLDEEKQQQDFSASSTTILDEEPIVNRGLAAALLLCQNKGLLETTVQKVARVKAPNKSLPSAVYCIEDKMAIDDKYSRREEYRGFTQDFKEKDGYKPDVKIEYVDETGRKLTPKEAFRQLSHRFHGKGSGKMKTERRMKKLDEEALLKKMSSSDTPLGTVALLQEKQKAQKTPYIVLSGSGKSMNANTITK
